Legend:
[1] = target: T1, human ErbB2, full length, on cells (human, UniProt P04626 23-1255); assay: cell-based or functional assay
[2] = target: T1, human ErbB2, full length, on cells; assay: cell-based or functional assay; remark: listed apart in the source
[3] = target: T1, human ErbB2, full length, on cells; assay: cell-based or functional assay; remark: listed apart in the source
[4] = target: T1, human ErbB2, full length, on cells; assay: cell-based or functional assay; remark: listed apart in the source
[5] = target: T1, human ErbB2, full length, on cells; assay: cell-based or functional assay; remark: listed apart in the source
[6] = target: T2, human ErbB2 ECD-myc/His fusion protein (human, UniProt P04626 23-652); assay: SPR, Biacore 2000 medium resolution; mAb captured on goat anti-human IgG, ErbB2(ECD)-cMyc/His injected; 1:1 fit
T2 construct: Made in-house in 293T cells; also called hErbB2(ECD)/cMyc-His; huErbB2 (ECD)/c-myc-His; not shown: c-myc/His tag of the pSecTag2Hygro vector
Protocol: The binding affinity of eight of the anti-ErbB2 antibodies was measured by medium resolution Biacore. All experiments were performed using a Biacore 2000 instrument.
First, 12 high-density goat α-human IgG antibody surfaces over three CM5 Biacore chips were prepared using routine amine coupling. […] Before each antigen injection cycle, each mAb was captured for six to nine seconds at a 100 μL/min flow rate. A 2-minute wash step followed each capture injection to stabilize each mAb baseline. […] All samples were randomly injected with several mAb capture/buffer inject cycles interspersed for double referencing. […] A flow rate of 100 μL/min. was used for all injection cycles. The data was fit to a 1:1 interaction model using CLAMP.

[7] = target: T1, human ErbB2, full length, on cells; assay: cell-based or functional assay; remark: listed apart in the source
[8] = target: T2, human ErbB2 ECD-myc/His fusion protein; assay: SPR, Biacore T100 high resolution; mAb captured on goat anti-human IgG, hHer-2(ECD)cMyc injected; 1:1 fit
Protocol: All experiments were performed using a Biacore T100 instrument. First, a high-density goat α human IgG antibody (Caltag H10500) surface was prepared over two CM5 Biacore chips using routine amine coupling. Each mAb was diluted in HBS-P running buffer containing 100 μg/ml Bovine serum albumin (BSA).
A capture level protocol was developed for all five mAbs. Before each antigen injection cycle, each mAb was captured for 15 to 30 seconds at a 20 μL/min flow rate. A 5-minute wash step followed each capture injection to stabilize each mAb baseline. […] The samples were prepared in the running buffer described above. All samples were randomly injected with several mAb capture/buffer inject cycles interspersed for double referencing. […] A flow rate of 50 μL/min. was used for all injection cycles.
All sensorgram data were fit to a 1:1 interaction model using CLAMP.

[9] = target: T2, human ErbB2 ECD-myc/His fusion protein; assay: limited antigen ELISA, 31 ng/ml ErbB2 ECD-myc/His coated, supernatant 1:25
Protocol: […] […] Antigen-coated plates were washed three times, blocked with 1% non-fat skim milk/PBS for at least 30 minutes at room temperature, and then washed again three times. Each hybridoma line sample was titrated in 1% non-fat skim-milk/PBS 1:3 for 7 points starting from a 1:25 dilution. […] The next day, plates were washed three times and incubated with 50 μl of 400 ng/ml immunopure Goat anti-human IgG (Fc)-HRP (Pierce catalog #31416) for 1 hour at room temperature. Then, the plates were extensively washed and pat dried on paper towel to remove residual HRP in wells. HRP substrate TMB (enhanced K-blue TMB, Neogen catalog #308177) was added to each well and incubated for 30 min. The reaction was stopped by addition of 1N HCl. Optical density at 450 nm was read on a microplate reader (Titerteck Multiskan Ascent).

Row | Binder | EC50 (ng/ml), inhibition of Heregulin-induced MCF7 cell proliferation [1] [ng/mL] | EC50 (ng/ml) n1, inhibition of Heregulin-induced ErbB2 phosphorylation in MCF7 cells [2] [ng/mL] | % Inhibition @10 µg/ml, Heregulin-induced MCF7 cell proliferation [1] [%] | EC50 (ng/ml) n2, inhibition of Heregulin-induced ErbB2 phosphorylation in MCF7 cells [2] [ng/mL] | % Inhibition @10 µg/ml (n1), ErbB2 phosphorylation in BT474 cells at 48 hours [3] [%] | % Inhibition @10 µg/ml (n2), ErbB2 phosphorylation in BT474 cells at 48 hours [3] [%] | % inhibition @36 µg/ml, SKBR3 cell proliferation [4] [%] | EC50 (ng/ml), inhibition of SKBR3 cell proliferation [4] [ng/mL] | 1 hr pTyr inhibition % (Heregulin-induced ErbB2 phosphorylation in MCF7 cells, hybridoma supernatant) [5] [%] | 24 hr pTyr inhibition % (Heregulin-induced ErbB2 phosphorylation in MCF7 cells, hybridoma supernatant) [5] [%] | Kd [6] [nM] | koff [6] [s⁻¹] | kon [6] [M⁻¹ s⁻¹] | N1 % Inhibition @40 µg/ml, BT474 cell proliferation [7] [%] | N1 EC50 (ng/ml), inhibition of BT474 cell proliferation [7] [ng/mL] | N2 % Inhibition @40 µg/ml, BT474 cell proliferation [7] [%] | N2 EC50 (ng/ml), inhibition of BT474 cell proliferation [7] [ng/mL] | Kd [8] [nM] | koff [8] [s⁻¹] | kon [8] [M⁻¹ s⁻¹] | also measured
1 | monoclonal antibody 1.71.3 (antibody, V domains shown) VH: EVQLVESGGGLVQPGGSLRLSCTASGFPFSSYDMHWVRQATGKGLEWVSAIGTAGDTFYPGSVKGRFTISRENAKNSLYLQMNSLRAGDTAVYYCAREGYSSGRYFYYGMDVWGQGTTVTVSS VL: not shown | > 10000 | > 10000 | – | – | – | – | – | – | – | – | – | – | – | – | – | – | – | – | – | – | –
2 | monoclonal antibody 1.20 (antibody, V domains shown, Fully human IgG (gamma/kappa) from a XenoMouse XM3B-3 hybridoma; constant regions not tied to it; also called 1.20.1; 1.19) VH: EVQLVESGGGLVKPGGSLRLSCAASGFTFSSYTMNWVRQAPGKGLEWVSSISSSSSYIYYADSVKGRFTISRDNAKNSLYLQMNSLSAEDTAVYSCARGGDGYNYYYFDYWGQGTLVTVSS VL: DIVMTQSPGSLVVSLGERATITCKSSQSVFFRSNNKNCLAWYQQRPGQSPNLLIYWASTRESGVPDRFSGSGSGTDFTLTISSLQAEDVAVYYCQQYFGSPFTFGPGTKVDIK | 770 | 15.5 | 100 | 17.4 | 21 | 28 | 49 | 25.2 | 91 | 96 | 3.6 | 0.000344 | 95000 | 40 | 85.3 | 37 | 12.8 | – | – | – | –
3 | monoclonal antibody 1.140 (antibody, V domains shown, Fully human IgG (gamma/kappa) from a XenoMouse XM3B-3 hybridoma; constant regions not tied to it; also called 1.124) VH: EVQLVESGGGLVKPGGSLRLSCAASGFTFSSYSMNWVRQAPRKGLEWVSSISSSSSYIYYADSVKGRFTISRDNAKNSLYLQMNSLRAEDTAVYYCARGGDGYNYYYFDYWGQGTLVTVSS VL: not shown | 633 | 14.7 | 91 | 22.9 | 31 | 33 | 44 | 42.7 | – | – | 3.5 | 0.000333 | 94000 | 39 | 300 | 45 | 70.9 | 10.6 | 0.000173 | 16400 | –
4 | monoclonal antibody 1.24 (antibody, V domains shown, Fully human IgG (gamma/kappa) from a XenoMouse XM3B-3 hybridoma; constant regions not tied to it; also called 1.24.3) VH: EVQLVESGGGLVKPGGSLRLSCAASGFTFSSYSMNWVRQAPGKGLEWVSSISSSSSYIYYADSVKGRFTISRDNAKNSLYLQMNSLRAEDTAVYYCARGGDGYNYYYFDYWGQGTLVTVSS VL: not shown | 3020 | 42.9 | 81 | 20.4 | – | – | 37 | 48.5 | 77 | 99 | 5.1 | 0.000655 | 128000 | 24 | 198 | 29 | 74.4 | – | – | – | LA at 31 ng/ml (OD) [9]: 2.35 OD 450 nm
5 | monoclonal antibody 1.96 (antibody, V domains shown, Fully human IgG (gamma/kappa) from a XenoMouse XM3B-3 hybridoma; constant regions not tied to it) VH: EVQLVESGGGLVKPGGSLRLSCAASGFTFSSYSMNWVRQAPGKGLEWVSSISSSSSYIYYADSVKGRFTISRDNAKNSLYLQMNSLRAEDTAVYYCARGGDGYNYYYFDYWGQGTLVTVSS VL: DIVMTQSPDSLAVSLGERATITCKSSQSVFFRSNNKNCLAWYQQRPGQPPNLLFYWASTRESGVPDRFSGSGSGTDFTLTISSLQAEDVAVYYCQQYFGSPFTLGPGTKVDIK | 2830 | 28.8 | 98 | 34 | 37 | 30 | 43 | 41.7 | – | – | 2.6 | 0.000273 | 103000 | 35 | 131 | 29 | 66.3 | 11.6 | 0.000194 | 16800 | –
6 | monoclonal antibody 1.43 (antibody, V domains shown) VH: EVQLVESGGGLVQPGGSLRLSCAASGFTFSSYWMHWVRQTPGKGLEWVANIKQDGSEKYYVDSVKGRFTISRDNAKNSLHLQMNSLRAEDTAAYYCASFRDYGMDVWGQGTTVTVSS VL: DIQMTQSPSSLSASVGDRVTITCRASQGISNHLAWFQQKPGKAPKSLIYGASSLQTGVPSKFSGSGSGTDFTLTISSLQPEDFASYFCQQYKGYPITFGQGTRLEIK | ~10000 | > 10000 | 53 | > 10000 | – | – | – | – | – | – | – | – | – | – | – | – | – | – | – | – | –

— US20130089544A1 (AstraZeneca / MedImmune, published 2013)
